In patent US20250241939A1, “NUCLEIC ACID-BASED DELIVERY SYSTEMS AND USES THEREOF” (Kodikaz Therapeutic Solutions, Inc., priority 2022, published 2025):

Key:
Format in all cases: cell-based, human
[1] = system: pancreatic cancer cell lines (MIA Paca-2 [MIA] and PANC1); assay: Cell viability: sensitivity to gemcitabine after culture with patient plasma
Protocol: For the corresponding DNase I-treated samples, plasma was treated with DNase I for 10 minutes. GR: Gemcitabine resistant.
Gemcitabine (GEM)-sensitive pancreatic cancer cell lines (MIA Paca-2 [MIA] and PANC1) were cultured for 24 h with DNase-treated or non-treated plasma from (GEM)-resistant (GR) patients or control plasma.
Cell viability: Cell viability assays were performed in 96 well, black, clear-bottom microplates. For MM cell line studies, 3×10^4 cells were cultured for 24 hours with media containing 10% human plasma of a bortezomib-resistant or-sensitive patient or a control non-cancer patient. Cells were then cultured for 24 hours with titrating concentrations of bortezomib (doses: 0, 5, 10, 15, 50 nM; Sigma). For PC cell lines viability studies, 1×10^4 cells were incubated for 24 hours with media containing plasma of a gemcitabine-resistant patient or non-cancer patient. Subsequently, titrating concentrations of gemcitabine (doses: 0, 10, 25, 50, 100, 200 μM; Sigma-Aldrich, MO) were added to the culture media and cells were then incubated for 96 hours. CellTiter-Blue Cell Viability Assay was used to evaluate cell viability according to the manufacturer's instructions (Promega). Cell viability was measured by a fluorescent protocol in an microplate reader. Experiments were performed in triplicate of 3 independent studies.

[2] = system: ctDNA chromatid integration in MM1s, MIA and HCT116 cell lines; assay: Effect of reverse transcriptase or integrase inhibitors on ctDNA chromatid integration; conditions: HCT116 treated prior to adding ctDNA, compared to no treatment control
Protocol: To evaluate functionally the role of retrotransposons in horizontal gene transfer of ctDNA, experiments were conducted to test the impact of inhibiting reverse transcriptases or integrases on ctDNA integration. Multiple myeloma (MM1s), pancreatic cancer (MIA), and colon cancer (HCT116) cell lines were treated with the reverse-transcriptase inhibitors zidovudine or didanosine, and with the integrase inhibitor raltegravir prior to adding the ctDNA to culture media.

[3] = system: MM1s (multiple myeloma) cell genome; assay: ctDNA coculture with MM1s cells, whole genome sequencing: genomic insertion sites, transposons at insertion points and SNVs (multiple myeloma); conditions: for Location / Chr position: identified genomic insertion site; for Location: chromosome; for Location / Chr position / No. SNP / Gene: multiple myeloma; for No. SNP: number of single nucleotide variants (SNVs or SNPs) identified; for Gene: gene at identified genomic insertion site
Protocol: The integration of ctDNAs into the host cell genome was evaluated. ctDNA was extracted from patient plasma, cultured for 24 hours with cells of a matching cancer cell type or non-matching cancer cell type, and whole genome sequencing was performed. The cell lines used were MM1s (multiple myeloma, MM) and MIA (pancreatic cancer, PC).
Single nucleotide variants (SNVs) unique to the ctDNA that were found in the host cell genome under matching coculture conditions were identified.
The sequence data was used to reconstruct genomic contigs for each experimental condition by de novo assembly. […] Coculture contigs carrying a ctDNA insertion were identified using NucDiff analysis. BLAST alignment analysis further validated the gain of ctDNA fragments in coculture conditions and identified the transition points of ctDNA insertion (FIGS. 3A-3C). […] The remaining 20% inserted into a chromosomal location distinct from their site of origin.
Experiments were designed to identify the presence of transposons in ctDNA fragments. To map ctDNA genomic junctions more precisely, a PACBIO probe was ligated to multiple myeloma and pancreatic cancer ctDNA samples to label their 5′ and 3′ ends. Whole-genome sequencing of DNA from cells with ctDNA genomic integration was done using the Illumina platform. De novo assembly was performed on the sequencing output. ctDNA contigs containing PACBIO adaptor were then matched to those contigs containing inserted ctDNA sequences identified in the coculture experiments. Transposable element on ctDNA sequences at the insertion points (<100 nucleotides from transition point between cell and ctDNA) were detected and classified using RepeatMaster.
A search was conducted for transposons that preferentially target cells of matching tumor types. The lists of transposons identified at the ctDNA insertion point in matching and mismatched coculture conditions were compared (e.g., MM ctDNA with MM cells or PC cells). Transposons were selected that were uniquely or preferentially inserted in the matching conditions.
In multiple myeloma, AluSp, MER11, MER11C, AluJb, and L2a, among other subfamilies of retrotransposons were identified at the MM ctDNA insertion sites (FIG. 5B and TABLE 7).
Whole-genome sequencing and Whole exon sequencing: ctDNA was extracted from 10 MM and 10 PC patients. DNA from CD138 (+) cells and from cell lines used in in vitro experiments (MM1s and MIA) was extracted using Blood & Cell Culture DNA Mini Kit (Quiagen, MD). DNA from […] paraffin embedded pancreatic tumors was obtained using QIAamp DNA FFPE Tissue Kit Print (Qiagen, MD).
After extraction, ctDNA was ligated to the PACBIO adaptor ([…]) using the ABM DNA Library Prep Kit for Illumina Sequencing (Applied Biological Materials Inc. Canada). PACBio-labeled ctDNA and regular ctDNA were subjected to standard methods for library preparation and sequencing using Illumina and Agilent protocols, respectively. Applied Biological Materials Inc. prepared the libraries and performed whole-exon and -genome sequencing. The average target coverage was 50×.
Identification of transposable elements and its nucleotide variants: To determine the locations of transposable-like regions in contigs, sequences were analyzed and transposable elements (TEs) were identified and classified using RepeatMasker version 4.1.0 and the Dfam database (release 3.1) of repetitive DNA families was used as a reference for identifying repeats in ctDNA contig sequences that were part of qualifying structural events. For each repeat sequence identified by RepeatMasker, the overall frequency of the specific repeat (e.g., for AluSp or L1) and their parent class (e.g., SINE) was computed.
Once the TE elements were identified, hit repeats/TE sequences, unique contigs for all samples, and insertion sequence were aligned with MAFFT software version. […]

Nc1ccn([C@@H]2O[C@H](CO)[C@@H](O)C2(F)F)c(=O)n1 [gemcitabine]
response to gemcitabine ([1]; cells cultured 24 h with non-DNase-treated GR patient plasma, vs control serum): became resistant
response to gemcitabine ([1]; cells cultured with DNase-treated GR plasma): restored the inherent sensitivity
response to gemcitabine ([1]; control serum treated with DNase): increased resistance

O=c1[nH]cnc2c1ncn2[C@H]1CC[C@@H](CO)O1 [didanosine]
ctDNA chromatid integration [2]: significantly reduced

Cc1cn([C@H]2C[C@H](N=[N+]=[N-])[C@@H](CO)O2)c(=O)[nH]c1=O [zidovudine]
ctDNA chromatid integration [2]: significantly reduced

Cc1nnc(C(=O)NC(C)(C)c2nc(C(=O)NCc3ccc(F)cc3)c(O)c(=O)n2C)o1 [raltegravir]
ctDNA chromatid integration [2]: significantly reduced

B1: 23 (nucleic acid, listed as Homo sapiens)
chain: TTCATCTTACAGAGATAAACATTTATCTTGATTCAGCAGTTTGGAAACACTGTTTTTATCCATTCTGTGAATGGACATTTGGGAGTTCATTAAGGCACACATGAAAAGGTGTATATCCCAGGGTAAAAACTAGAAGGAAGCTATCTGAGAAACCACTCTGTGGTGTGTGCATTGATCTCGCTGATTTAAAGCTTTCTTTTGATTCAGCAGTTTGGAATCACTGTTTGTGCTCATTCTGTAAATGGATATTTGGGAGCTCATTGAGGTCAATGGCAAAAAAGTGAATAACTGAGGATAAAAACTAGAAATAAGCTATCTGAGAAACGGATTTATGATGTGTGCATTCATCTCGCAAAATTAAACATTTCTTTTCCTTCAACAGTTTGGAAACACGGTTTTTATAGGATCTGCAAAGGGATATTTTGGAGCACATTGAGGTCTATGGTGTAAAAGAAAATATCTTCAGATAAAACCTAGAAAGAAGCTTTCTGAGAAATTGCATTTTGATGTGTGCATTCATCTCACAGAGTTAATACTTTTTTTTGATTCACCAGTGTGGATACACTGTTTTTGTCCATTCTGCTAATGGACCTTTGGGGGCTCATTTAGGCCAATGGCAAAAAAGTGAATATCCCAGGATAAAAACTAGAAGGAAGGTATCTGAGAAACTGCTATGTGATGTGTGCCATCATCTCACAGTCTTAAAAGTTTCTTTTCATTCACCAGTTTGGAAACAGTGTTTTTGTAGAATCTGCAAAGTCATATTTTTGAGT
Location [3]: Chr16
Chr position [3]: 32534349
No. SNP [3]: 9

B2: 24 (nucleic acid, listed as Homo sapiens)
chain: GATGAATGCACATATCACAAAAAGTTTCTCAGATTGCTTCTGTCTAGATTTTATGTGAAGTTATTTCCTTTTCTACCATAGAACCCAAAGCACTTATAATGTCCCCTTGCAGATTCTACAAAAAGAATGTTTCAAAACTGCTCAATCAAAAGAAAGGTTCAAATTTGTGAGATGAATGCTCGCATCACCAAGAAGTTTCTCAAAATACTTCTGTCTAGTTTTTATGTGAAGACATTTCTTTTTCCGTGATAGGTCTCAAAATGATCAAAATTTCCACTTGCAAATTCTACAAAAAGAGAGTTTCAAAGCTGCTCAATCAAAAGAAAGGTTTATATCTGTGAGATGAACACACACTTCACAAAGCAGTTTCTAAGATTTCTTCTGCCTAGATTTTATGTAATGATATTTCCTTTTCTACCATACTTTGCAAACTGCTCCAAATGTCCACCTGTAGATTCTACAAAAACAGTGTTTCCAAACTGCTCAATCAAAAGAAAGGTTAACTCTGTGAGATGAACTCACACATCACAAAGAAGTTTCTCAGAATTCTTCTGTCTAGTTCTAATGTGAAGATATTTCCTTTTGGACCAGAGGCCCCAAGGCTATCGAAATGTCCCCTTGTAGATTCTACAAAAAGAGTATTTCAAAACTGGTCCATCAAGAGAAAGGCTCAACTCTGGGAGATGAATGCACACATCACAAAGAAGTTTCTCAGAATGCTTCTATCTAGTTTTTACATGAAGCTATTTCCTTTTCCACCATAAGCCTCAAAGCGCTCCAAATGTCCACTTGCAGGTTCTGCAAAAAGAGAGTTTCCAAAGTTCTCAATCAAAAGAAACGGTTAACTCTGTGAGATAAATGCACACATCACAAAGAAGTTTCTCAGAATTTTTCTGTCTAGTTTTTGTGTGAAGATATTTCATTTTC
Gene [3]: AK311573
Location [3]: Chr21
Chr position [3]: 10749086
No. SNP [3]: 49

B3: 3 (nucleic acid, listed as Homo sapiens)
chain: TCTCACCACCTCTACTACTGCCTATCTGCATCTGGGTGCACGTCCTCTGCTATTCCTTCTGTTTCTACAGAAGCTGTCCATATTTCTAAGGCTAATCCCTTGCATTTTGGTACCAGACTTCCCTGACCTACACAAAGATGATCACCCCCCAAAATTGCCTTTCTTTCCTGCATCAAGTTTTTTCTTCTCTACTGTATTATTCCTATTGCACATTAGCCCAAAAAATGCCGTTGTTTTTCCATCGGTAAAAAAAAAAAATAGAGAGAAAAAGAAAAATAATCCATTGCCGCCAATCTATCTTCTAGTCATTTTTCCATTTCTCTGTTCTCCATTCTGCATAAACCATTTTTACTTGAATTGTTTATACTTGCTGTTTACAACAAACCTCCTCTTTCTCTCCACCCCAATCAGATTTTGGTCCACATTCCTCATGCAGTGGTCAGTCCTTGGTCCTCAACCTAGTCTAGCCTGCTTGCTGGTGGGTGTGCTCTCGGGGCATTTGCTTGTGTTTGCACGACAGCTCAGTCCCTCACTTCTCTCAAGTCTTTGCTAATAACACTCTTGCATCCAAGTCTTCCCTGACCTGCTACTTAAAAACAACTCACCCCCACCCCTAGAAATCCCTATCCTCTTCCCTACGCTTTATTTTTCTCCATAATACTTATCACCATGTAGCTGAACATGTATTTTACTCACTTTTTTTTATATTGTCCATCTTCCCTCAGTGAATTGAAAGCTCCATGAGGGCAGGAGGTTTTGTTTATTGTGTTTACTGCTTTATCCCTAGCACCCAGCACAGCATATGTGATATAGTAGACACTCAATACAAATCTGATGTGTGTGTGTCT
Gene [3]: AKAP6
Location [3]: Chr4
No. SNP [3]: Many

B4: THE1C (nucleic acid, listed as Homo sapiens)
DNA: TGATATGGTTTGGCTGTGTCCCCACCTAAATCTCATCTTGAATTGTAGTTCCCATAATCCCCATGTGTCATGGGAGGGACCCAGTGGGAGGTAATTTAATCCTGGGGGCAGTTACCCTCCTGCTATGTGTGTGTGTGTGTGTGTGTTCTCACGAGATCTGATGGTTTTATAAGGGGCTTTTCCCCCTTCGCTCGGCACTTCTCCTTCCTGCCGCCATGTGAAGAAGGACGTGTTTGCTTCCCCTTCCGCCATGATTGTAAGTTTCCTGAGGCCTCCCCAGCCATGCNGAACTGTGAGTCAATTAAACCTCTTTCCTTTATAAATTACCCAGTCTCGGGTGTGTCTTTATTAGCAGCGTGAGAACGGACTAATACA
modifications: misc_difference 287 a, c, t, g, unknown or other
blast orientation ([3]; TABLE 7, multiple myeloma co-culture, BLAST alignment orientation): Plus/Minus
blast chr ([3]; TABLE 7, multiple myeloma co-culture, chromosome with the longest result for BLAST analysis of the full contig): chr14
Transposon orientation ([3]; TABLE 7, multiple myeloma co-culture, compared with the human reference genome): direct
Distance from insertion ([3]; TABLE 7, multiple myeloma co-culture, distance between insertion and the transposon (0 if they overlap)): 0
Location relative to insertion ([3]; TABLE 7, multiple myeloma co-culture, location of the transposon relative to the insertion on the contig): intersect
